Data from patent US20250313631A1 (HUMMINGBIRD BIOSCIENCE PTE, published 2025).
Positions count from the first letter of the chain named. In names and notes the source's numbering stands. Each block holds one binder with its values, some of them ahead of it.

Assays:
[1] = target: T1, recombinant human VISTA (His-tagged) (human, UniProt Q9H7M9 33-194); assay: ELISA, plate coated with human VISTA
T1 construct: bought soluble protein (Sino Biological); also called hVISTA; human VISTA polypeptide

[2] = target: T2, human PD-L1 (human, UniProt Q9NZQ7 19-239); assay: BLI (Octet), His-tagged human PD-L1 on anti-Penta-HIS biosensor, antibody 500-15.6 nM
T2 construct: captured through a His tag in the BLI experiments; also called hPD-L1; B7H1/PDL-1
T2 sequence (Q9NZQ7 19-239 limits assumed): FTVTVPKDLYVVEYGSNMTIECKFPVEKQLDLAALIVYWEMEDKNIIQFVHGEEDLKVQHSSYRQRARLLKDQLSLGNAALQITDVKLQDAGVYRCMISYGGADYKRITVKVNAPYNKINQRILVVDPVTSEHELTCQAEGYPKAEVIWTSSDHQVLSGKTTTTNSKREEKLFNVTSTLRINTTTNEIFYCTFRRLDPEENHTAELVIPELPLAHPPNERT
Procedure: (§1) Finally, the biosensors were incubated for 120 sec in PBS pH 7.2 to obtain the dissociation curves. Kinetic and affinity constants were calculated by global fitting of the association and dissociation data to a 1:1 binding model.

[3] = target: T3, recombinant rat VISTA (His-tagged) (rat, UniProt A0ABK0L5H3 33-192); assay: ELISA, plate coated with rat VISTA
T3 sequence: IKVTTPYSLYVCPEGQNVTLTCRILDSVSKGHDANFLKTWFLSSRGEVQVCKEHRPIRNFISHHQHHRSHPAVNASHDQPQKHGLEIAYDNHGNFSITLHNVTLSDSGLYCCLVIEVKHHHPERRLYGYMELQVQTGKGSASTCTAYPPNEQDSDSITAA

[4] = target: T1, recombinant human VISTA (His-tagged); assay: ELISA, plate coated with human VISTA; unit nM from the legend paragraph 697
[5] = target: T4, recombinant mouse VISTA (His-tagged) (mouse, UniProt Q9D659 33-191); assay: ELISA, plate coated with mouse VISTA; unit nM from the legend paragraph 699
T4 construct: also called murine VISTA; mVISTA
T4 sequence (looked up): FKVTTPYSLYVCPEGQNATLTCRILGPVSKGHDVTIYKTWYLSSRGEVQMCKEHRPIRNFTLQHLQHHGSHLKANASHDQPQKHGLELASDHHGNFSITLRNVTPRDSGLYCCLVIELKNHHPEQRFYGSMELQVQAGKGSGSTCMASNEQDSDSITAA

[6] = target: T5, recombinant cynomolgus macaque VISTA (His-tagged) (cynomolgus macaque, UniProt A0A7N9IB00 33-194); assay: ELISA, plate coated with cyno VISTA
T5 construct: also called cyno VISTA; cynomolgus monkey VISTA

[7] = target: T4, recombinant mouse VISTA (His-tagged); assay: ELISA, plate coated with mouse VISTA; unit nM from the legend paragraph 697
[8] = target: T1, recombinant human VISTA (His-tagged); assay: ELISA, plate coated with human VISTA; unit nM from the legend paragraph 698
[9] = target: T4, recombinant mouse VISTA (His-tagged); assay: ELISA, plate coated with mouse VISTA; unit nM from the legend paragraph 698
[10] = target: T4, recombinant mouse VISTA (His-tagged); assay: ELISA, plate coated with mouse VISTA
[11] = target: T4, recombinant mouse VISTA (His-tagged); assay: BLI (Octet), 1:1 global fit, His-tagged mouse VISTA captured
[12] = target: T4, recombinant mouse VISTA (His-tagged); assay: BLI (Octet), 1:1 global fit, mouse VISTA captured
Procedure: All measurements were performed at 25° C. with agitation at 1000 rpm. […] Sensograms were referenced for buffer effects and then fitted using the Octet QK384 user software (Pall ForteBio, USA).

[13] = target: T1, recombinant human VISTA (His-tagged); assay: BLI (Octet), 1:1 global fit, human VISTA captured
Procedure: as §1

[14] = target: T1, recombinant human VISTA (His-tagged); assay: BLI (Octet), 1:1 global fit, His-tagged human VISTA captured
[15] = target: T1, recombinant human VISTA (His-tagged); assay: ELISA, plate coated with human VISTA; unit nM from the legend paragraph 699
[16] = target: T4, recombinant mouse VISTA (His-tagged); assay: BLI (Octet), 1:1 global fit, His-tagged mouse VISTA captured; remark: listed apart in the source
[17] = target: T1, recombinant human VISTA (His-tagged); assay: antigen-binding ELISA; HMBD-002 in F8, day 20 at 40°C
[18] = target: T6, human B7H4 (human, UniProt Q7Z7D3 25-258, limits assumed); assay: ELISA, plate coated with human B7H4, antibody titrated
T6 construct: also called VTCN1
T6 sequence (looked up): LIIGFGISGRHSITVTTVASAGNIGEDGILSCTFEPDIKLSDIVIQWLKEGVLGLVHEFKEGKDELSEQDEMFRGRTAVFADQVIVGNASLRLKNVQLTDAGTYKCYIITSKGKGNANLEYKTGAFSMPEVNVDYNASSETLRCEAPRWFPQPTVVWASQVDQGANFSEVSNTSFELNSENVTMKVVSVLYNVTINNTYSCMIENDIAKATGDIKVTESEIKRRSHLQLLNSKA
Procedure: (§2) 384-well plates were coated with 1 μg/ml of target antigen diluted in PBS for 16 hrs at 4° C. […] After washing, plates were developed with colorimetric detection substrate 3,3′,5,5′-tetramethylbenzidine (Turbo-TMB; Pierce) for 10 min.

[19] = target: T1, recombinant human VISTA (His-tagged); assay: antigen-binding ELISA; HMBD-002 in F4, day 20 at 40°C
[20] = target: T1, recombinant human VISTA (His-tagged); assay: ELISA on coated human VISTA, antibody diluted in buffer of pH 6.5
Procedure: as §2

[21] = target: T1, recombinant human VISTA (His-tagged); assay: antigen-binding ELISA; HMBD-002 in F9, day 10 at 40°C

B3: anti-VISTA clone V4-C27 IgG1 (antibody, V domains shown)
VH: QVQLQESGPGLVKPSDTLSLTCTVSGYSITSDYTWNWIRQTPGKGLEWIGHITYSGSVSYNPSLRSRVTISRDTSKNQFSLKLSSVTAADTATYSCARALYYPWYFDVWGTGTTVTVSS
VL: EIVLTQSPATLSLSPGERATLSCRASSSVGYIHWYQQKPGQAPRPLIYATYNRATGIPARFSGSGSGTDNTLTISSLEPEDSAVYYCQQWSSYPPITFGGGTKLEVKR
EC50 [1]: 0.0295 nM
binding result [2]: no binding (tested: 500 nM)
EC50 [3]: 0.196 nM
EC50 [4]: < 0.0007 nM
EC50 [5]: 0.073 nM
EC50 [6]: 0.0324 nM
EC50 [7]: 0.0023 nM
EC50 [8]: 0.037 nM
EC50 [9]: 0.047 nM
EC50 [10]: 0.0374 nM
Kd [11]: < 0.001 nM
koff [11]: < 1e-07 s⁻¹
kon [11]: 426000 M⁻¹ s⁻¹
Kd [12]: 0.395 nM
koff [12]: 0.00016 s⁻¹
kon [12]: 392000 M⁻¹ s⁻¹
Kd [13]: 0.119 nM
koff [13]: 6.1e-05 s⁻¹
kon [13]: 511000 M⁻¹ s⁻¹
Kd [14]: < 0.001 nM
koff [14]: < 1e-07 s⁻¹
kon [14]: 465000 M⁻¹ s⁻¹
EC50 [15]: 0.047 nM
Kd [16]: 0.137 nM
koff [16]: 5.5e-05 s⁻¹
kon [16]: 398000 M⁻¹ s⁻¹

B4: anti-VISTA clone 4M2-C12 IgG1 (antibody)
heavy: not shown
light: DIVITQTPAILSTSPGEKVTMTCRASSSVGYIHWYQQKPGSSPKPWIYATSNLASGVPARFSGSGSGTSNSLTITRVEAEDAATYYCQQWSSYPPITFGGGTKLEVKRTVAAPSVFIFPPSDEQLKSGTASVVCLLNNFYPREAKVQWKVDNALQSGNSQESVTEQDSKDSTYSLSSTLTLSKADYEKHKVYACEVTHQGLSSPVTKSFNRGEC
notes: mouse variable regions on human IgG1/kappa constant regions; also called V4; V4pr
EC50 [1]: 0.0319 nM
EC50 [3]: 1.25 nM
EC50 [4]: 0.036 nM
EC50 [6]: 0.0472 nM
EC50 [7]: 0.43 nM
EC50 [10]: 0.387 nM

B5: V4-C26 hIgG4 (antibody)
heavy: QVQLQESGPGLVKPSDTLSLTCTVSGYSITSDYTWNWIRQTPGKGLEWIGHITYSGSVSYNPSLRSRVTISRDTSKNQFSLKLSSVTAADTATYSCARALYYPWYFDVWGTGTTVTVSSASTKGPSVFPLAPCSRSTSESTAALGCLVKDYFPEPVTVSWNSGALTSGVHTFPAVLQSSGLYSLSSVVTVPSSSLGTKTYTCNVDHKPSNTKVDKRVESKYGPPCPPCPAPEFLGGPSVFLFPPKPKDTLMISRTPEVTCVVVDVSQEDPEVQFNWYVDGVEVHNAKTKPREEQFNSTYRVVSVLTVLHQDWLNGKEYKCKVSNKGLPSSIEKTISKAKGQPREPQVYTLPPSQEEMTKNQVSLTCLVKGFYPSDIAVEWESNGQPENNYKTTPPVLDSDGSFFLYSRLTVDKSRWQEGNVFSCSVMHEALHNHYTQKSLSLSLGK
light: EIVLTQSPATLSLSPGERATLSCRASSSVGYIHWYQQKPGQAPRPIIYTTSNRATGIPARFSGSGSGTDNTLTISSLEPEDSAVYYCQQWSSYPPITFGGGTKLEVKRTVAAPSVFIFPPSDEQLKSGTASVVCLLNNFYPREAKVQWKVDNALQSGNSQESVTEQDSKDSTYSLSSTLTLSKADYEKHKVYACEVTHQGLSSPVTKSFNRGEC
notes: human IgG4 (S228P)/kappa format; also called HMBD-002; HMBD-002-V4C26
EC50 [17]: 0.0248 nM
binding result [18]: no binding (tested: about 3e-8 M)
EC50 [19]: 0.0205 nM
EC50 [20]: 0.0363 nM
EC50 [21]: 0.0305 nM

More lines, now with the values ahead:

EC50 [1]: 0.0268 nM
binding result [2]: no binding (tested: 500 nM)
EC50 [3]: 0.201 nM
EC50 [4]: 0.01 nM
EC50 [5]: 0.116 nM
EC50 [6]: 0.0385 nM
EC50 [7]: 0.017 nM
EC50 [8]: 0.032 nM
EC50 [9]: 0.042 nM
EC50 [10]: 0.0304 nM
Kd [11]: < 0.001 nM
koff [11]: < 1e-07 s⁻¹
kon [11]: 401000 M⁻¹ s⁻¹
Kd [12]: 0.202 nM
koff [12]: 7.6e-05 s⁻¹
kon [12]: 378000 M⁻¹ s⁻¹
Kd [13]: < 0.001 nM
koff [13]: < 1e-07 s⁻¹
kon [13]: 373000 M⁻¹ s⁻¹
Kd [14]: < 0.001 nM
koff [14]: < 1e-07 s⁻¹
kon [14]: 384000 M⁻¹ s⁻¹
EC50 [15]: 0.073 nM
Kd [16]: < 0.001 nM
koff [16]: < 1e-07 s⁻¹
kon [16]: 462000 M⁻¹ s⁻¹
B1: anti-VISTA clone V4-C24 IgG1 (antibody, V domains shown)
VH: B3 VH
VL: B3 VL with A49T, Y51S, N52Y

EC50 [1]: 0.0241 nM
binding result [2]: no binding (tested: 500 nM)
EC50 [3]: 0.16 nM
EC50 [4]: 0.0034 nM
EC50 [5]: 0.086 nM
EC50 [6]: 0.0356 nM
EC50 [7]: 0.0089 nM
EC50 [8]: 0.038 nM
EC50 [9]: 0.058 nM
EC50 [10]: 0.0325 nM
Kd [11]: < 0.001 nM
koff [11]: < 1e-07 s⁻¹
kon [11]: 403000 M⁻¹ s⁻¹
Kd [12]: 0.53 nM
koff [12]: 0.0002 s⁻¹
kon [12]: 382000 M⁻¹ s⁻¹
Kd [13]: 0.241 nM
koff [13]: 9.8e-05 s⁻¹
kon [13]: 407000 M⁻¹ s⁻¹
Kd [14]: < 0.001 nM
koff [14]: < 1e-07 s⁻¹
kon [14]: 404000 M⁻¹ s⁻¹
EC50 [15]: 0.064 nM
Kd [16]: 0.183 nM
koff [16]: 7.6e-05 s⁻¹
kon [16]: 413000 M⁻¹ s⁻¹
B2: anti-VISTA clone V4-C26 IgG1 (antibody)
heavy: not shown
light: B5 light
